Reference: paper PMC5692602

Target: ^15N-labeled intersectin 1-SH3A domain (UniProt Q15811)
Test: NMR titration

Chain of UniProt Q15811 (Q15811 740-806): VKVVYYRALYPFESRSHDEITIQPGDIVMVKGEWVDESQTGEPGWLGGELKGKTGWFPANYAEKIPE

Kd [µM]	Substance
793	SH3A–B interdomain linker-derived peptide of intersectin 1, T832 and T839 phosphorylated
275	SH3A–B interdomain linker-derived peptide of intersectin 1, dephosphorylated
